Patent US10526416B2, “Anti-HER3 antibodies and uses of same” (Yeda Research and Development Co. Ltd., priority 2014, dated 2020)

Key:
[1] = molecular target: T1, IgB3 (Homo sapiens, UniProt P21860); test: Antibody competition assay with Lumi4(Tb)-labeled NG33 on IgB3-coated plates; format: binding; conditions: NG33-K2 1 nM
T1 construct: To produce IgB3 (recombinant HER3 extracellular domain fused to a human IgG Fc domain); made in house
Protocol: FIGS. 12A-D show a combination of two mAbs directed to two different epitopes of HER3. (FIGS. 12A and 12B) The antibodies NG33 and XC252 were labeled with the fluorescent dye Lumi4® Tb Cryptate (K2). 96 well-plate were coated with IgB3 (1.5 μg/ml), blocked with PBS-BSA and incubated for 1 h with various concentrations of mAbs under gentle shaking at RT. The labeled mAb, NG33-K2 (FIG. 12A) or XC252-K2 (FIG. 12B), was then added at 1 nM final concentration. After ah incubation, the plate was washed 4 times with KREBS buffer, and the fluorescence intensity at 610 nm was measured using a fluorescence microplate reader. (FIG. 12C) The various anti-HER3 mAb combinations were studied for their ability to trigger HER3 degradation using N87 cells. Cells were treated for 2 h at 37° C. with mAb (10 μg/ml). After cell lysis and protein extraction, the samples were subjected to immunoblotting with the indicated antibodies. (FIG. 12D) The combination's capacity to modulate NRG-induced phosphorylation of HER3, AKT and ERK was evaluated using N87 cells. After 20 min treatment at 37° C. with 10 μg/ml of mAbs, NRG (20 ng/ml) was added to the cells for 10 min. The cells were then lysed, and equal quantities of lysate protein were electrophoresed before immunoblotting, as indicated.
Agent labeling was performed by Cisbio. […] Following 1 h incubation, the plate was washed 4 times with KREBS buffer (146 mM NaCl, 4 mM KCl, 0.5 mM MgCl2, 1 mM CaCl2, 10 mM Hepes, 1 gr/L glucose, and 1 mg/mL albumin), and the fluorescent intensity (excitation: 488 nm, emission: 610 nm) was measured using a fluorescence microplate reader. […] Finally, following two washes with KREBS buffer, the fluorescence intensity was measured at 670 nm (excitation: 620 nm).
Combinations of antibodies directed against two different epitopes of the same receptor, as has been previously shown, can improve the effect of treatment with a single mAb (28, 29). […] First, it was determined which antibody from the anti-HER3 series targets an epitope distinct from that targeted by NG33. […]

[2] = system: BxPC3 cells; test: MTT assay on BxPC3 cells in culture; format: cell-based, human; conditions: 3 days
Protocol: FIGS. 15A-F show the effects of a mixture of two anti HER3 mAbs, in vivo on BxPC3 cell xenografts and in vitro. (FIGS. 15A-C) CD1-Nude mice were grafted subcutaneously with 5×10^6 BxPC3 cells. Once tumors became palpable (after 13 days), the mice were randomized into group of 8 mice and treated every 3 days for 5 weeks. The control group (CTRL) was injected intra-peritoneally (IP) with 200 μl PBS. The other groups were treated with mAb alone or in combination at a final concentration of 0.2 mg/0.2 ml of PBS per mouse. The mice were weighted once a week and the tumors measured twice a week. An average tumor size of 7-8 mice (+/−SEM) is shown. (FIGS. 15D-F) Proliferation assays using MTT were performed on BxPC-3. 5,000 cells per well were plated the day before and treated for 72 h with the indicated mAb treatment. Decreasing concentrations of the indicated mAb (alone or in combination) were used in medium supplemented with 1% serum and NRG (10 ng/ml).
To determine if the combination of NG33 mAb with another anti-HER3 mAb is more efficient than using NG33 alone, the combination of two mAbs, NG33 and XC252, was tested on several tumor cell lines, which were grafted subcutaneously (gastric: N87, lung: A549, pancreatic: BxPC3, ovarian: OVCAR-5, and head and neck: CAL-27, FIG. 14). This pilot was performed with 3 mice per group. Mice were injected twice a week with the mAb combination or with PBS. The best responder of these in vivo models for solid tumor growth was the BxPC3 xenograft model. […] This experiment was performed on 7 to 8 mice per group. The mice were treated every 3 days with PBS, each mAb alone or a mAb combination, for 5 weeks (0.2 mg/injection). […] In order to reinforce the in vivo data, the cytotoxicity of each mAb alone or in combination with NG33 was tested on BxPC3 cells in culture (FIGS. 15D, 15E and 15F). Decreasing concentrations of mAb were used and a MTT assay was performed following 3 days of treatment. […] On the contrary, XC252 used alone has a […] cytotoxic impact on BxPC3 proliferation leading to 60% inhibition of cell survival at high concentration.

T1 sequence (P21860 20-643 limits assumed): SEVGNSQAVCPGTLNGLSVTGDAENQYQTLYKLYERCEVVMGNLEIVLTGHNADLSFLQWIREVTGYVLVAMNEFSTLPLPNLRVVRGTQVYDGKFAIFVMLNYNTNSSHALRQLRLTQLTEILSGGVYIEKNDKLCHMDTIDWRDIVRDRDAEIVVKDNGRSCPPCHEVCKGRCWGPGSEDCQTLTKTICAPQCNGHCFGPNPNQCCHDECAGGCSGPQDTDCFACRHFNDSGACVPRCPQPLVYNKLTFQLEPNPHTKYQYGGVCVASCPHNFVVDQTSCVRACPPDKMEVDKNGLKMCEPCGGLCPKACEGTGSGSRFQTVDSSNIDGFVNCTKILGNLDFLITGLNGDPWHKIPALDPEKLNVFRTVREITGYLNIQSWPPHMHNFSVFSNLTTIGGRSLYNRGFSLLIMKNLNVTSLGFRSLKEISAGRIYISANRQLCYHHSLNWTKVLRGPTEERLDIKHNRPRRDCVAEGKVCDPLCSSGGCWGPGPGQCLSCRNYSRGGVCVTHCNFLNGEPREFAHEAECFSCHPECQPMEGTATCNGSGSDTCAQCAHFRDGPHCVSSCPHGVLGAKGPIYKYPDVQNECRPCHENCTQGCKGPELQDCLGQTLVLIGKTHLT
T1 sequence (P01857 99-330 partner limits assumed): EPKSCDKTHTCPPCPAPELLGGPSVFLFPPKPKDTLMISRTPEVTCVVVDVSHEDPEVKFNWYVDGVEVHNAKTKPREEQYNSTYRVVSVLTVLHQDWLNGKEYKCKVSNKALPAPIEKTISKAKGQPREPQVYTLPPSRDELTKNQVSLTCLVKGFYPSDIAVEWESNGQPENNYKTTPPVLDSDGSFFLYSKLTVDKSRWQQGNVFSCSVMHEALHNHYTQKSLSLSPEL

B1: XC252: anti-HER3 mAb generated as described in Chen X, et al. (1996); heavy and light chain SEQ ID NOs: 49 and 53 (antibody, V domains shown)
VH: EVQLQQSGAELVRPGVSVKISCKGSGYTFTDYAMHWVKQSHAKSLEWIGVISTYYGDPRDNQKFKGKATMTVDKSSSTAYMELARLTSEDSAIYYCARGDYDWYAIDYWGQGTSVTVSS
VL: DVVMTQTPLSLPVSLGDQASISCRSSQSIVHSDGNTYLEWYLQKPGQSPKLLIYKVSNRFSGVPDRFSGSGSGTDFTLKISRVEAEDLGVYYCFQGSHVPPTFGGGTKLEIK
modifications: VH chain of XC252 polypeptide; VL chain of XC252 polypeptide
Q: Which “effect on binding of Lumi4(Tb)-labeled NG33 to IgB3” value [1] does the source give for B1 here?
A: did not alter NG33 binding

Q: What about the “inhibition of cell survival” value ([2]; high concentration, 1% serum, NRG 10 ng/ml) of the same molecule?
A: 60%

B2: NG83: anti-HER3 mAb; light chain CDRs SEQ ID NOs: 7-9, heavy chain CDRs 10-12 (antibody, V domains shown)
VH: QIQLVQSGPELKKRGETVKISCKASGYTFTNYGMNWVRQAPGKGLKCMGWINTYAGEPTYADDFKGRFAFSLDSSASTAYLQINNLKNEDMATYFCARGGITGAMDYWGQGTSVTVSS
VL: DVVMTQKTSSLSTSLGDRVTISCRASQDIRNYLNWYQQKPDGTVKLLIYYTSRLHSGVPSRFSGSGSGTDYSLTISDLEQEDIATYFCQQGNTLPWTFGGGTKLAIK
modifications: VH chain of NG83 polypeptide; VL chain of NG83 polypeptide
Q: Which “effect on binding of Lumi4(Tb)-labeled NG33 to IgB3” value [1] does the source give for B2 here?
A: potentiated NG33 binding to IgB3

Q: And the “effect on BxPC3 proliferation/survival (in words)” value [2]?
A: did not interfere with cell proliferation
